# Assay results published in patent publication US20080152663A1.
# Target: B61/B51 (on B61/B51-matched allogeneic LCL)
# Test: cell-based or functional assay
binder,measurement,value
QEPLYPVQVSSADARLMVFDKTEGTWRLLCSSRSNAR [hepsin peptide 48-84 (residues 48-84 of hepsin)],Percent cell killing; B61/B51-matched allogeneic LCL + peptide; CD8+ T cells of donor,27.1%
